# Publication PMC5617235
# B1: Nanobody Nb474, C-terminally His-tagged (VHH)
# VHH: QVQLQESGGGLVQPGGSLRLSCAASETALTYYAIGWFRQAPGKEREGVSCISRINSGSGARTDYADSVKGRFTISRDDAKNTVTLQMNSLEPEDTARYYCALDTTDRYDSANGRYYCTISSDTYDYWGQGTQVTVSS
# Columns and labels:
# [1] = target: T. congolense fructose-1,6-bisphosphate aldolase, wild type (Trypanosoma congolense); test: SEC; analytical SEC of 1 mg TcoALD mixed with Nb474 at Nb474:TcoALD ratios 1:4, 2:4, 3:4, 4:4, 6:4, incubated at least 1 h; Superdex 200 HR 10/30, 50 mM MES, 500 mM NaCl, pH 6.7; peaks analysed by SDS-PAGE
# [2] = target: T. congolense fructose-1,6-bisphosphate aldolase, wild type (Trypanosoma congolense); test: crystal structure; (Nb474-TcoALD)4 complex, His tags of both retained; 100 mM sodium cacodylate pH 6.5, 200 mM magnesium acetate, 10% PEG 8000, 20°C; 2.57 Å
# [3] = target: T. congolense fructose-1,6-bisphosphate aldolase, wild type (Trypanosoma congolense); test: SEC; analytical SEC of TcoALD alone; Superdex 200 HR 10/30, 50 mM MES, 500 mM NaCl, pH 6.7; calibrated with the Bio-Rad standard
# [4] = target: T. congolense fructose-1,6-bisphosphate aldolase A77E mutant (Trypanosoma congolense); test: SPR; SPR sandwich assay: immobilised Nb474 on CM5 saturated with a TcoALD variant, then Nb474 (0.5 nM to 1.0 uM) injected as second analyte; 20 mM HEPES, 150 mM NaCl, 0.005% Tween, 3.4 mM EDTA, pH 7.4; 1:1 Langmuir model for WT and A77E
Molecule,stoichiometry N [1],stoichiometry N [2],stoichiometry N [3],stoichiometry N (Nb474 per TcoALD monomer) [1],Kd [4] [nM],koff [4] [s⁻¹],kon [4] [M⁻¹ s⁻¹]
"T. congolense fructose-1,6-bisphosphate aldolase, wild type (enzyme)",4,4,2,,,,
B1,,,,1,0.067,0.000141,2.11e+06
